Patent publication US20220112308A1 (Genentech, published 2022)
Numbering of substitutions follows the chain as printed. Each block holds one binder with its values, some of them ahead of it.

Legend:
[1] = molecular target: T1, KRas^WT-GDP (recombinant) (human, UniProt P01116-2 2-169, GDP bound); assay: SPR, IgG captured, KRas as analyte
Experimental: (§1) SPR experiments were carried out on the Mass-1 (Bruker) at 25° C. using HBS-P+(GE Healthcare) running buffer. 1 μg/mL of the anti-KRas antibodies were captured using an anti-HuIgG1 Fc capture kit (GE Healthcare). […] KRas^G12C-GDP was titrated using a dilution series from 5000-0 nM. KRas^G12C-GDP+ARS1620 was titrated using a dilution series from 1000-0 nM. KRas^G12C-GDP+ARS853 was titrated using a dilution series from 200-0 nM. KRasWT-GDP was titrated using a dilution series from 2000-0 nM. Sensorgrams were fit to a 1:1 Langmuir model to identify kinetic parameters.

[2] = molecular target: T1, KRas^WT-GDP (recombinant); assay: SPR, IgG captured by anti-human IgG1 Fc, KRas in solution, 25 C, 1:1 Langmuir fit
Experimental: as §1

[3] = molecular target: KRas^WT-GTP (recombinant) (human, UniProt P01116-2 2-169, GTP bound as printed in Table 1B); assay: SPR, KRas bound to GTP (Table 1B)

B3: anti-KRas antibody 1B7 (antibody, human IgG1, V domains shown)
VH: EVQLVQSGAEVKKPGSSVKVSCKASGGTFSSYAISWVRQAPGQGLEWMGGIIPIFGTANYAQKFQGRVTITADESTSTAYMELSSLRSEDTAVYYCARYYDFWSGYPGGLFDVWGQGTLVTVSS
VL: SVLTQPPSVSAAPGQKVTISCSGSSSNIGNNYVSWYQQLPGTAPKLLIYDNNKRPSGIPDRFSGSKSGTSATLGITGLQTGDEADYYCGTWDSSLTGWVFGGGTKLTVL
notes: also called Class I anti-KRas antibody
- binding result [1]: no binding (tested: titrated 2000-0 nM)

B6: anti-KRas antibody 2H11 (antibody, human IgG1, V domains shown)
VH: EVQLQESGPGLVKPPGTLSLTCAVSGGSISSSNWWSWVRQPPGKGLEWIGEIYHSGSTNYNPSLKSRVTISVDKSKNQFSLKLSSVTAADTAVYYCARGSSSWYDLGPFDYWGQGTLVTVSS
VL: not shown
notes: also called Class II anti-KRas antibody; CLAMP
- Kd [2]: 42 nM

B7: anti-KRas antibody 1A5 (antibody, human IgG1, V domains shown)
VH: EVQLVESGGGLVQPGGSLRLSCAASGFTFSSYSMNWVRQAPGKGLEWVSYISSSSSTIYYADSVKGRFTISRDNAKNSLYLQMNSLRAEDTAVYYCARGFYVRNWFDPWGQGTLVTVSS
VL: AIQMTQSPSSLSASVGDRVTITCRASQGIRNDLGWYQQKPGKAPKLLIYAASSLQSGVPSRFSGSGSGTDFTLTISSLQPEDFATYYCLQDHDYPLTFGQGTKVEIK
notes: also called Class I anti-KRas antibody; 1A5-488 (labelled form in FACS)
- Kd [2]: 159 nM

B9: anti-KRas antibody 1E5 (antibody, V domains shown)
VH: EVQLVESGGGLVKPGGSLRLSCAASGFTFSSYSMNWVRQAPGKGLEWVSSISSSSSYIYYADSVKGRFTISRDNAKNSLYLQMNSLRAEDTAVYYCARTNNYGYRYFDYWGQGTLVTVSS
VL: LTQDPAVSVALGQTVRITCQGDSLRSYYASWYQQKPGQAPVLVIYGKNNRPSGIPDRFSGSSSGNTASLTITGAQAEDEADYYCNSRDSSGNHWVFGGGTKLTVL
notes: also called Class II anti-KRas antibody
- Kd [2]: 411 nM

B10: anti-KRas antibody 2A3 (antibody, human IgG1, V domains shown)
VH: B9 VH with T99A, N100T, N101S, Y102S, R105Y
VL: ELTQDPAVSVALGQTVRITCQGDSLRSYYASWYQQKPGQAPVLVIYGKNNRPSGIPDRFSGSSSGNTASLTITGAQAEDEADYYCNSRDSTDNHLWVFGGGTKLTVL
notes: as for B9
- Kd [3]: 7 nM
- Kd [2]: 71 nM

More lines, now with the values ahead:

- binding result [1]: no binding (tested: titrated 2000-0 nM)
B1: anti-KRas antibody 2C1 (antibody, V domains shown)
VH: EVQLVESGGGLVKPGGSLRLSCAASGFTFSSYSMNWVRQAPGKGLEWVSSISSSSSYIYYADSVKGRFTISRDNAKNSLYLQMNSLRAEDTAVYYCARAFYSYMDVWGQGTLVTVSS
VL: not shown
notes: as for B3

- Kd [2]: 24 nM
B2: anti-KRas antibody 3A12 (antibody, V domains shown)
VH: EVQLVESGGGLVQPGGSLRLSCAASGFTFSSYSMNWVRQAPGKGLEWVSYISSSSSTIYYADSVKGRFTISRDNAKNSLYLQMNSLRAEDTAVYYCARGKGIVGWGFFGMDVWGQGTLVTVSS
VL: B3 VL with S93N, T96S, G97V
notes: as for B9

- binding result [1]: no binding (tested: titrated 2000-0 nM)
B4: anti-KRas antibody 1A6 (antibody, human IgG1, V domains shown)
VH: B3 VH
VL: B3 VL with W98Y
notes: as for B3

- binding result [1]: no binding (tested: titrated 2000-0 nM)
B5: anti-KRas antibody 1F4 (antibody, human IgG1, V domains shown)
VH: EVQLVESGGGLVQPGGSLRLSCAASGFTFSSYSMNWVRQAPGKGLEWVSYISSSSSTIYYADSVKGRFTISRDNAKNSLYLQMNSLRAEDTAVYYCARSFGPYAFDVWGQGTLVTVSS
VL: not shown

- binding result [1]: no binding (tested: titrated 2000-0 nM)
B8: anti-KRas antibody 1D6 (antibody, human IgG1, V domains shown)
VH: EVQLVESGGGLVQPGGSLRLSCAASGFTFSSYAMSWVRQAPGKGLEWVSAISSSGSSTYYADSVKGRFTISRDNSKNTLYLQMNSLRAEDTAVYYCARDQGGYGYPGESWFDYWGQGTLVTVSS
VL: B7 VL with A1D, R30S, N31S, D32Y, G34A, L89Q, D91Y, H92Y, D93S, L96F
notes: as for B3
